This assay deals with recombinant CD47 protein (Homo sapiens, UniProt Q08722). In words: SPR, CD47 conjugated to CM5 chip by EDC-NHS. The format is binding. The settings on record: CM5 chip, CD47 250 RU, 30 µL/minutes. On the procedure: Specifically, the recombinant CD47 protein was conjugated to the surface of the CM5 chip by a target SPR reaction of 250 RU through an EDC-NHS reaction to be used, and for HBS-P, the sensogram obtained through a process of association for 3 minutes and dissociation for 10 minutes at a flow rate of 30 µL/minutes was analyzed with the BiaEvaluation software using a 1:1 binding model and global fitting.
recombinant CD47 protein, sequence (Q08722 19-323): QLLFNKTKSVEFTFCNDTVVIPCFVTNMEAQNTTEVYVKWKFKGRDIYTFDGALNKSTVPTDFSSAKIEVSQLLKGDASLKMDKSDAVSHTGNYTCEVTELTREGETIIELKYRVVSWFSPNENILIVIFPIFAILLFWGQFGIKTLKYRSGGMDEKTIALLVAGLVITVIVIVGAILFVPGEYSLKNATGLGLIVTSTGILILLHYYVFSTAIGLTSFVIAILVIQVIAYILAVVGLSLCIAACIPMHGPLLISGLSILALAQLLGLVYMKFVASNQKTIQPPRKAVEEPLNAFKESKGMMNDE

Take “Sirpα: pure Sirpα (SEQ ID NO: 25), water-soluble domain of the original CD47 ligand [reference compound]”: the ka is 610000 M⁻¹ s⁻¹ and the kd is 0.37 s⁻¹.

Values taken from US20230322893A1, “CD47 BINDER AND LIPOSOME COMPLEX FOR CANCER TREATMENT” (priority 2020, published 2023).
